The source of these data is patent publication US20220242939A1 (BIOARCTIC, published 2022).

For assay [1], the target named is T1, recombinant full-length ApoE4 (aa 1-299; SEQ ID NO:45; Abcam cat. no. ab50243) (human, UniProt P02649 19-317).
T1 construct: Bought protein; also called recombinant ApoE4 full-length protein
Briefly: direct ELISA, target coated at 1 ug/ml, supernatant in 3-fold dilutions from 1000 ng/ml, OD 450 nm. On the procedure:
(§1) Selectivity evaluation by direct ELISA: The direct ELISA described below was used to evaluate the binding selectivity of generated monoclonal anti-ApoE antibodies with affinity for the N-terminal neo-epitope of C-terminal ApoE fragments starting at amino acid G200.
(§2) The screening was performed according to standard ELISA protocols. Briefly, 1 μg/ml solutions of N-terminal neo-epitope peptide (SEQ ID NO:50) conjugated to BSA, the recombinant C-terminal ApoE fragment G200-HIS (SEQ ID NO:48) and recombinant full-length ApoE4 (SEQ ID NO:45; Abcam; cat. no. ab50243) were prepared by dilution in PBS. 50 μl/well were added to an ELISA half-area 96 well microtiter plate. Then, the plate was sealed with adhesive sealer and incubated over night at 4° C. The plates were blocked with 150 μl/well of protein-free blocking solution (Pierce) for 1 h at room temperature with shake (600-900 rpm). The plates were washed four times with washing buffer containing 0.28 mM NaH₂PO₄, 2.5 mM Na₂HPO₄, 150 mM NaCl, 0.1% TWEEN®-20 and 0.0075% Kathon CG. Antibodies of interest were serially diluted 3-fold with a starting dilution at 1 μg/ml (mixed 1:1 with dilution buffer: PBS with 0.1% BSA and 0.05% TWEEN®-20) and incubated for 2 h at room temperature. The plates were washed four times as before. […] After another wash (as above), 50 μl/well of K-Blue® aqueous substrate (Neogen) were added, and the reaction was stopped after 5-15 min with 50 μl/well of 0.5 M […]. The optical density at 450 nm was read using an ELISA reader (Tecan). The optical density was plotted against the antibody concentration to generate concentration-response curves (FIG. 14).
On the technique in general: ELISA stands for enzyme-linked immunosorbent assay.

The target of assay [2] is T2, recombinant C-terminal ApoE fragment G200-HIS (ApoE-G200-H299-10xHIS) (human, UniProt P02649 218-317).
T2 construct: also called G200-HIS fragment
T2 sequence (P02649 other isoform, or with tags, fused parts or gaps limits assumed): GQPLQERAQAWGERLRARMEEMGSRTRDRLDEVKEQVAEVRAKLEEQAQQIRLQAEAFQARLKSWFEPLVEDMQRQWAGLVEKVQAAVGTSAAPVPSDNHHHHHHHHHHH
The assay is described as above. On the procedure: as §1, §2

In assay [3] the target is T3, full-length ApoE in human brain extract from Alzheimer's disease patients (human, UniProt P02649 19-317).
T3 construct: mature; Endogenous protein on Western blot or in solution (IP); also called ApoE full-length protein
T3 sequence (P02649 19-317): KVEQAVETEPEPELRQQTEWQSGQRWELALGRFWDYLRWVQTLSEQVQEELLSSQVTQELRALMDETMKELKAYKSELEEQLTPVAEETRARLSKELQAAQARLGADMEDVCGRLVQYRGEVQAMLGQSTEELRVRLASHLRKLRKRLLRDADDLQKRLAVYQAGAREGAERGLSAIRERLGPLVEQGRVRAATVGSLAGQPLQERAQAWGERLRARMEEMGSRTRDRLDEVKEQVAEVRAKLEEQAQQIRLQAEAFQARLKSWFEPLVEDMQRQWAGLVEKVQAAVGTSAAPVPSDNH
In words: Western blot of AD brain RIPA 2% SDS extract; hybridoma supernatant as primary antibody. The text has this:
Selectivity evaluation and human target binding in Alzheimer's disease brain extracts by Western blot analysis: The Western blot analysis described below was used to evaluate selective binding of monoclonal antibodies with affinity for the N-terminal neo-epitope of ApoE fragments […], starting at G200, without binding to ApoE full-length protein, in human brain extracts from an Alzheimer's disease patient. Fresh frozen brain tissue from the Alzheimer's disease patient was homogenized in RIPA 2% SDS extraction buffer, followed by centrifugation at 16000×g for 1 h. The subsequent supernatant was subjected to standard protein concentration determination.
RIPA 2% SDS brain extract containing 80 μg total protein was mixed with 2×Laemmli sample buffer, boiled for 5 min at 95° C. and loaded onto SDS-PAGE gels (Bolt™ 12% Bis-Tris Plus 10 well, Thermo Fisher, cat. no. NW00120BOX). Gels were run for 30-40 min at 180 V, after which proteins were transferred from the gels to nitrocellulose membranes using the Trans-Blot® Turbo™ system (Bio-Rad). Membranes were blocked in Odyssey® blocking buffer for 1 h and incubated over night at room temperature with hybridoma supernatant diluted 1:1 in Odyssey® blocking buffer with 0.1% TWEEN®-20. Membranes were washed and incubated for 1 h at room temperature with the detection antibody anti-mouse-800CW (LI-COR, cat. no. 925-32210) diluted 1:25000 in Odyssey® blocking buffer with 0.1% TWEEN®-20. Membranes were washed and images acquired using Odyssey® FC (LI-COR).
On the technique in general: In western blotting, separated proteins are transferred to a membrane and probed.

Usually EC50 (read off the curve) stands for the concentration giving half of the maximal effect.

T1 sequence (P02649 19-317 C130R limits assumed): as the sequence (P02649 19-317) above, with C112R counted along it

B1: 17G4, hybridoma monoclonal antibody (unpurified supernatant) (antibody, mouse IgG1, V domains shown)
VH: EVQLVESGGGLVKPGGSLKLSCSASGFTFSRYAMSWVRQSPEKRLEWVAEINSGGSYSFYSDTVTGRFTISRDNAKNTLFLEMSSLRSEDTAIYYCARQLTGTDYYGTDYWGQGTSVTVSS
VL: DVLMTQTPLSLPVSHGDQASISCRSSQSLLYSNGNTYLEWYLQKPGQSPKLLIYKVSNRFSGVPDRFSGSGSGTDFTLKISRVEAEDLGVYYCFQGSHVPYTFGGGTKLEIK
As for B1, the binding result was “no binding (tested: 1000 ng/ml)” in assay [1] and “no binding (tested: supernatant diluted 1:1 (text))” in assay [3]. Moreover, the “EC50 (read off the curve)” value in assay [2] is about 8 ng/mL.

B2: 28F2, hybridoma monoclonal antibody (unpurified supernatant) (antibody, mouse IgG1, V domains shown)
VH: QIQLVQSGPDLKKPGETVKISCKASGYTFTNYAMHWMKQAPGKALKWMGWINTYTGEPTFADDFKGRFAFSLETSASTAYLQINSLKNEDMATYFCAREGYYDRSHYFDYWGQGTTLTVSS
VL: DVLMTQTPLSLPVSLGDQASISCRSSLSLVHGDGNTYLEWYLQKPGQSPKLLIYKVSNRFSGVPDRFSGSGSGTDFTLKISRVEAEDLGVYYCLQGSHIPFTFGSGTKLEIK
In the case of B2, the binding result is “no binding (tested: 1000 ng/ml)” in assay [1] and “no binding (tested: supernatant diluted 1:1 (text))” in assay [3]. Also, in assay [2], the “EC50 (read off the curve)” value is about 5 ng/mL.

B3: 7C7, hybridoma monoclonal antibody (unpurified supernatant) (antibody, mouse IgG2b, V domains shown)
VH: EVQLVESGGGLVKPGGSLRLSCAASGFTFSSFAMSWVRQSPERRLEWVAEISRGGGYAFYSDTVTGRFTISRDNARNTLFLEMGSLRSEDTAMYYCSRQLTGTDYYAMDYWGQGTSVTVSS
VL: DVLLTQTPLSLFVSLGDQASISCRSSQSIVYTNGNTYLEWYLQKPGQSPKLLIYKVSNRFSGVPDRFSGSGSGTDFTLKISRVEAEDLGVYYCFQGSQVPYTFGGGTKLELK
As to B3, the binding result in assay [1] is “no binding (tested: 1000 ng/ml)”; in assay [3] it was “no binding (tested: supernatant diluted 1:1 (text))”.

B4: 23D5, hybridoma monoclonal antibody (unpurified supernatant) (antibody, mouse IgG1, V domains shown)
VH: EVQLVESGGGLVKPGGSLKLSCSASGFTFSRYAMSWVRQSPEKRLEWVAEINSGGSYSFYSDTVTGRFTISRDNAKNTLFLEMSSLRSEDTAIYYCARQLSGTDYYGTDYWGQGTSVTVSS
VL: DVLMTQTPLSLPVSHGDQASISCRSSQSLLYSNGNTYLEWYLQKPGQSPKLLIYKVSNRFSGVPDRFSGSGSGTDFTLKISRVEAEDLGVYYCFQGSHVPYTFGGGTKLEIK
Consider B4, for which the binding result in assay [1] is “no binding (tested: 1000 ng/ml)”; in assay [3], “no binding (tested: supernatant diluted 1:1 (text))”. The concentration for a half-maximal effect (EC50 (read off the curve)) in assay [2] was about 10 ng/mL.
